B1: ATX-P-885 (antibody, human IgG1, kappa, V domains shown)
VH: QVQLQQWGAGLLKPSETLSLTCAVYGGSFSGYYWSWIRQPPGKGLEWIGEINHSGSTNYNPSLKSRVTISVDTSKNQFSLKLSSVTAADTAVYYCAREGVYEDYWGQGTLVTVSS
VL: EIVLTQSPATLSLSPGERATLSCRASQSVSNYLAWYQQKPGQAPRLLIYDAYNRATGIPARFSGSGSGTDFTLTISSLEPEDFAVYYCQQRSNWPLTFGQGTRLEIKR
notes: human IgG1 heavy chain and kappa light chain
B2: 4A5 (antibody, V domains shown)
VH: EVKLVESGGGLVKPGGSLKLSCAASGFTFSSYAMSWVRQIPEKRLEWVASISRGGTTYYPDSVKGRFTISRDNVRNILYLQMSSLRSEDTAMYYCGRYDYDGYYAMDYWGQGTSVTVSS
VL: DIKMTQSPSSMYASLGERVTITCKASPDINSYLSWFQQKPGKSPKTLIYRANRLVDGVPSRFSGGGSGQDYSLTINSLEYEDMGIYYCLQYDEFPYTFGGGTKLEMK
B3: ATX-P-875 (antibody, human IgG1, kappa, V domains shown)
VH: not shown
VL: DIQMTQSPSSLSASVGDRVTITCRASQSISSYLNWYQQKPGKAPKLLIYAASSLQSGVPSRFSGSGSGTDFTLTISSLQPEDFATYYCQQYDNLPITFGQGTRLEIKR
notes: as for B1
B4: UC961 (ATX-P-453) (antibody, V domains shown)
VH: QVQLQESGPGLVKPSQTLSLTCTVSGYAFTAYNIHWVRQAPGQGLEWMGSFDPYDGGSSYNQKFKDRLTISKDTSKNQVVLTMTNMDPVDTATYYCARGWYYFDYWGHGTLVTVSS
VL: DIVMTQTPLSLPVTPGEPASISCRASKSISKYLAWYQQKPGQAPRLLIYSGSTLQSGIPPRFSGSGYGTDFTLTINNIESEDAAYYFCQQHDESPYTFGEGTKVEIK

Assays:
[1] = target: T1, human ROR-1 endogenously expressed on JeKo-1 and MDA-MB-468 cells (human, UniProt Q01973 30-937); assay: cell-based or functional assay
Mouse ROR1 - His = target: T2, Mouse ROR1 - His (mouse, UniProt Q9Z139 30-403, limits assumed); assay: SPR, purified Mouse ROR1-His
T2 construct: Purified His-tagged protein; not shown: His tag

Hu/Cy/Rh ROR1 - His [2] = target: T3, Hu/Cy/Rh ROR1 - His (human/cynomolgus/rhesus, UniProt Q01973 30-403, limits assumed); assay: SPR, purified Hu/Cy/Rh ROR1-His
T3 construct: Purified His-tagged protein; also called HUMAN/CYNO/RHESUS ROR-1; not shown: His tag

[3] = target: T1, human ROR-1 endogenously expressed on …; assay: cell binding saturation assay, flow cytometry on ROR-1 positive cells; one value told for the group
[4] = target: T1, human ROR-1 endogenously expressed on …; assay: flow cytometry, titration on ROR-1 positive JeKo-1 cells, secondary antibody staining, Net MFI
[5] = target: T1, human ROR-1 endogenously expressed on …; assay: flow cytometry on MDA-MB-468 cells, titrated antibody detected with a labeled secondary antibody, % Top MFI (cellular binning with 4A5-PE)
[6] = target: T1, human ROR-1 endogenously expressed on …; assay: flow cytometry on MDA-MB-468 cells, titrated antibody detected with a labeled secondary antibody, % Top MFI (cellular binning with Dy650-UC961)
[7] = target: T1, human ROR-1 endogenously expressed on …; assay: competition on MDA-MB-468 cells by flow cytometry: ATX-P-885 titrated first, then a saturating dose of labeled UC961 (Dy650-UC961) as the competed antibody
Hu/Cy/Rh ROR1 - His [8] = target: T3, Hu/Cy/Rh ROR1 - His; assay: SPR (Carterra), head 'Kinetics (KD)' of the binning table; the sheet prints no unit, the four other KD values of the same head equal the KD (M) of Table 1 on Hu/Cy/Rh ROR1-His
[9] = target: T1, human ROR-1 endogenously expressed on …; assay: competition on MDA-MB-468 cells by flow cytometry: ATX-P-875 titrated first, then a saturating dose of labeled 4A5 (4A5-PE) as the competed antibody

T2 sequence (Q9Z139 30-403 limits assumed): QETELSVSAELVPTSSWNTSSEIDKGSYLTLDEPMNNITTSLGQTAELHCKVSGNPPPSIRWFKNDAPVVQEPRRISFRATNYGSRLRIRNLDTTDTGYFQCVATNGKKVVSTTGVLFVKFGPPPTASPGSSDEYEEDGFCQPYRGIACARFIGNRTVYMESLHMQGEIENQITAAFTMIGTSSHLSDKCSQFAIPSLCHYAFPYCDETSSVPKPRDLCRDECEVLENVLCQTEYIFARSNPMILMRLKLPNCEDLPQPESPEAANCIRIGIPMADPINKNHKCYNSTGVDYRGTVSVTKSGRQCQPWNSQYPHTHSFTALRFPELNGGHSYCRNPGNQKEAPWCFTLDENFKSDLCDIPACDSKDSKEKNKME

Row | Binder | Cellular Internalization, JeKo-1 (%) [1] [%] | Cellular Internalization, MDA-MB-468(%) [1] [%] | Kd (Mouse ROR1 - His) [nM] | koff (Mouse ROR1 - His) [s⁻¹] | kon (Mouse ROR1 - His) [M⁻¹ s⁻¹] | Kd (Hu/Cy/Rh ROR1 - His [2]) [nM] | koff (Hu/Cy/Rh ROR1 - His [2]) [s⁻¹] | kon (Hu/Cy/Rh ROR1 - His [2]) [M⁻¹ s⁻¹] | saturating concentration [3] [nM] | EC50 (read off the curve) [4] [nM] | EC50 (read off the curve) [5] [nM] | EC50 (read off the curve) [6] [nM] | IC50 (read off the curve) [7] [nM] | Kd (Hu/Cy/Rh ROR1 - His [8]) [nM] | IC50 (read off the curve) [9] [nM]
1 | B1 | 75 | 89 | 45.3 | 0.00132 | 29200 | 10.9 | 0.00295 | 270000 | 74 | ~0.3 | ~2 | ~3 | ~3 | – | –
2 | B2 | – | – | – | – | – | – | – | – | – | – | – | – | – | 2.81 | –
3 | B3 | 75 | 89 | – | – | – | – | – | – | 74 | – | ~0.6 | ~0.9 | – | – | ~0.7
4 | B4 | 75 | 80 | – | – | – | 4.69 | 0.00591 | 1.26e+06 | – | – | – | – | – | – | –

Source: patent publication US20260137795A1 (IMMUNOME, published 2026)
